Source: patent publication US20090053740A1, “AGGLUTINATION-BASED METHOD FOR FAST DETECTION, ISOLATION AND QUANTIFICATION OF APOPTOTIC CELLS” (CEDARS-SINAI MEDICAL CENTER, priority 2005, published 2009)
Where two headings read alike, the source gives them in different places.

Experiments:
apoptotic cells = experiment: Effect of glycoprotein synthesis/traffic inhibitors on glycoprotein expression in apoptotic cells; type: cell-based
[1] = test system: murine leukemia L1210 cells; experiment: Effect of cisplatin concentration on quantity of live cells
Protocol: Apoptosis of L1210 cells was induced by cisplatin (0.5 and 0.1 μg/ml, or 5.0 μg/ml, Ebewe, Austria) (56,57); apoptosis of L929 cells was induced by hyperthermia 43° C. […] Cell viability was controlled by trypan-blue (0.1% w/v solution) exclusion test, and cells were counted in hemocytometric chamber under light microscope.

L1210 cells = type: binding, murine
[2] = test system: murine leukemia L1210 cells; type: cell-based
Protocol: Mixtures were resuspended once and 10 μl were transferred on slide glass, and examined under microscope.
Mannose-specific PMRL and PSL lectins caused agglutination of normal cells in concentrations of 625 and 1000 μg/ml, respectively and agglutination of apoptotic cells in concentrations of 78 and 125 μg/ml, respectively (FIG. 11). Thus, lectin concentration needed for agglutination of apoptotic cells was approximately equal to and/or equal to ⅛ (625 against 78 and 1000 against 125) of that needed to agglutinate the non-apoptotic cells. It is believed that there is an 8-fold increase in mannose-containing glycoconjugate expression in the apoptotic cells comparing to intact cells. Similar results were obtained for galactose-specific lectins.

[3] = test system: murine fibroblasts of L929 line; experiment: Lectinocytochemical analysis with HRP-labeled lectins; type: binding
[4] = test system: human adenocarcinoma cells of MCF-7 line; experiment: as above; type: binding
Protocol: (§1) Lectin cytochemical analysis was conducted as described previously by Herrington & Mc Gee (Herrington C S, McGee JO'D. Diagnostic molecular pathology. Oxford: IRL Press; 1992), with some modifications. Cell smears were fixed in a mixture of acetone, methanol, and formalin (19:19:2) for 90 s at room temperature and then air dried. Smears were washed twice with Tris saline buffer (TSB) for 2 min and incubated with HRP-labeled lectins (50 μg/ml) for 1 h at room temperature or overnight at 4° C. If necessary, the appropriate sugar inhibitor (0.1 M solution) was added to the incubation mixture. Smears were washed twice with TSB for 10 min and incubated with 0.5 mg/ml of 3,3′-diaminobenzidin (Sigma Chemical Co.) and 4 μl/ml of H2O2 in TSB for 5 min. In some experiments a NiCl2 solution was added to the incubation mixture (final concentration, 1 mg/ml) to improve cell contrast.
(§2) Alternatively, smears were washed in distilled water, air dried and photographed. Densitometric analysis was performed on an AMD-based IBM PC computer using ImageJ (Wayne Rasband, National Institutes of Health, USA) program support and the UTHSCSA ImageTool program (University of Texas Health Science Center in San Antonio, Tex.).

[5] = test system: human leukemia Jurkat cells; experiment: as above; type: binding
Protocol: as §1, §2

[6] = test system: L929, L1210, MCF-7 (wt), MCF-7 (DOX/R), and Jurkat cell lines; experiment: Lectinocytochemical analysis, summary over the studied cell lines; type: binding
[7] = test system: human lung carcinoma A549 cells; experiment: Fluorescent microscopy with fluorescent lectin conjugate; type: binding

O=CC[C@@H](O)[C@H](O)[C@H](O)CO [2-deoxy-D-glucose]
effect on the increase in expression of α-D-mannose- and β-D-galactose-containing glycoprotein(s) in apoptotic cells (apoptotic cells): did not diminish

N.N.[Cl][Pt][Cl] [cisplatin, cis-diamminodichloroplatinum]
effect of increasing concentration on live cell number [1]: decrease in live cell number

OC[C@H]1O[C@H](O[C@H]2[C@H](O)[C@@H](O)C(O)O[C@@H]2CO)[C@H](O)[C@@H](O)[C@H]1O (stereo partly drawn) [lactose, 4-O-(α-D-galactopyranosyl)-D-glucopyranose, reference compound]
inhibition of lectin binding by specific sugar inhibitor (L1210 cells; α-MMan for PSL, lactose for RCA-120): substantial

CC[C@@]1([C@@H]2O[C@@H]([C@H]3O[C@@](O)(CO)[C@H](C)C[C@@H]3C)C[C@@H]2C)CC[C@H]([C@]2(C)CC[C@]3(C[C@H](O)[C@@H](C)[C@@H]([C@@H](C)[C@@H](OC)[C@H](C)C(=O)O)O3)O2)O1 [monensine]
effect on the increase in expression of α-D-mannose- and β-D-galactose-containing glycoprotein(s) in apoptotic cells (apoptotic cells): did not diminish

CO[C@H]1O[C@H](CO)[C@@H](O)[C@H](O)[C@@H]1O [α-MMan, α-Methyl-D-mannopyranoside, reference compound]
inhibition of lectin binding by specific sugar inhibitor (L1210 cells): almost absolute abolishment

tunicamycin
effect on the increase in expression of α-D-mannose- and β-D-galactose-containing glycoprotein(s) in apoptotic cells (apoptotic cells): did not diminish

B1: PSL: Pisum sativum lectin, α-D-mannose-specific (protein, UniProt P02867 31-217; P02867 218-275, looked up)
Lectin beta chain: TETTSFLITKFSPDQQNLIFQGDGYTTKEKLTLTKAVKNTVGRALYSSPIHIWDRETGNVANFVTSFTFVINAPNSYNVADGFTFFIAPVDTKPQTGGGYLGVFNSAEYDKTTQTVAVEFDTFYNAAWDPSNRDRHIGIDVNSIKSVNTKSWKLQNGEEANVVIAFNAATNVLTVSLTYPNSLEEEN
Lectin alpha chain: VTSYTLSDVVSLKDVVPEWVRIGFSATTGAEYAAHEVLSWSFHSELSGTSSSKQAADA
lectin concentration needed for agglutination of apoptotic cells as fraction of that needed for non-apoptotic cells ([2]; L1210 cells): ⅛
minimal lectin concentration needed to induce noticeable agglutination ([2]; apoptotic L1210 cells): 125 µg/mL
minimal lectin concentration needed to induce noticeable agglutination ([2]; normal L1210 cells): 1000 µg/mL
binding by apoptotic cells compared with normal cells (L1210 cells): much better bound
lectin binding of cells pretreated 2 h with non-labeled lectin vs untreated, stained with corresponding HRP-labeled lectin (L1210 cells): decrease
lectin binding, apoptotic vs normal cells ([3]; L929): significantly stronger binding
staining, apoptotic vs non-apoptotic cells ([3]; L929, etoposide 10 μM, 72 h): more intensive staining
lectin binding, apoptotic vs non-apoptotic cells ([3]; L929, hyperthermia 43° C., 3h, detached by rubbing): increased binding
lectin binding, apoptotic vs intact cells ([3]; L929, hyperthermia, trypsinization): significantly stronger
lectin binding, apoptotic vs non-apoptotic cells [4]: increase in binding
lectin binding, apoptotic vs normal cells [4]: statistically insignificant
lectin binding, apoptotic vs non-apoptotic cells [5]: stronger
lectin binding with apoptotic cells compared to non-apoptotic cells [6]: increased bidding

B2: FITC-PSL: FITC-labeled PSL lectin conjugate (conjugate, UniProt P02867 31-217; P02867 218-275, looked up)
Lectin beta chain: B1 Lectin beta chain
Lectin alpha chain: B1 Lectin alpha chain
modifications: FITC label
notes: FITC-labeled PSL lectin conjugate
binding of labeled lectin compared to untreated cells or cells with onset of apoptosis ([7]; A549, 5 μg/ml cisplatin 24 hours, apoptosis in almost all cells (FIG. 18 lower row)): significantly higher
binding of labeled lectin compared to untreated cells ([7]; A549, 5 μg/ml cisplatin 24 hours, beginning of apoptotic cell death (FIG. 18 middle row)): significantly stronger
binding of labeled lectin ([7]; untreated A549 cells): did not bind
